Assay results taken from PMC6584647, “Integrated NMR and cryo-EM atomic-resolution structure determination of a half-megadalton enzyme complex” (Nature Communications, 2019).

Target: the molecule itself
Test: cryo-EM structure; single-particle cryo-EM map at 4.1 Å with tetrahedral symmetry imposed, refined jointly with MAS NMR and solution-NMR restraints (XPLOR-NIH, full dodecamer)

B1: aminopeptidase TET2 from Pyrococcus horikoshii (enzyme)
chain: MEVRNMVDYELLKKVVEAPGVSGYEFLGIRDVVIEEIKDYVDEVKVDKLGNVIAHKKGEGPKVMIAAHMDQIGLMVTHIEKNGFLRVAPIGGVDPKTLIAQRFKVWIDKGKFIYGVGASVPPHIQKPEDRKKAPDWDQIFIDIGAESKEEAEDMGVKIGTVITWDGRLERLGKHRFVSIAFDDRIAVYTILEVAKQLKDAKADVYFVATVQEEVGLRGARTSAFGIEPDYGFAIDVTIAADIPGTPEHKQVTHLGKGTAIKIMDRSVICHPTIVRWLEELAKKHEIPYQLEILLGGGTDAGAIHLTKAGVPTGALSVPARYIHSNTEVVDERDVDATVELMTKALENIHELKI
notes: TET2 aminopeptidase, Pyrococcus horikoshii, UniProt O59196; 353 residues (39 kDa) per subunit as printed; Dodecamer of 12 x 39 kDa (468 kDa), with two zinc ions in each active site; Samples carried various isotope labels (2H, 13C, 15N, methyl labelling); the cryo-EM sample was u-[2H,13C,15N]-labelled; No tag is mentioned; source: E. coli BL21(DE3), purified (heating to 85 °C, Resource Q, size …)
  stoichiometry N: 12
